Test [1] concerns the target Human DND1 (Dead end protein homolog 1) RRM2 domain (139-217) (human). Description: SEC.
Test [2] shares this target. Kind of test: crystal structure.

The stoichiometry N is the number of molecules, sites or subunits per partner or assembly. On to “Human DND1 (Dead end protein homolog 1) RRM2 domain (139-217) (domain or fragment)”, for which the stoichiometry N in test [1] and in test [2] was 2 in each case.

The values are drawn from publication doi:10.1101/2020.03.05.978023.
